Drawing on the supplement of paper PMC12042874, this text covers amyloid nucleation score for 105 substances.

± gives the uncertainty stated by the source.

The data set is described as follows: amyloid nucleation score (Sup35N fusion, yeast selection) (log enrichment); library NNK1; higher = more nucleation; inactive = no reads after selection. Put shortly:
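Using DiMSum, nucleation scores were taken as the log enrichment of output over input reads, centred on the mode score of non-aggregating sequences. The input and output reads came from Illumina sequencing of plasmid inserts, with sequences under 100 input reads excluded. The yeast were psi-negative, expressed Sup35N fused to peptides of 20 random codons, were induced with 100 μM copper sulfate for 24 hours, and were grown 7 days at 30°C on medium lacking adenine and uracil.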
In turn, WQFYTVL gave an amyloid nucleation score of -0.246 ± 0.31. Substance WQLLKKCP came in with an amyloid nucleation score of -0.576 ± 0.41.

WQLYIEYFE returned an amyloid nucleation score of 0.128 ± 0.36. WREGDI: the amyloid nucleation score was -0.294 ± 1.2. For WREYRLWDEG, the amyloid nucleation score is -0.208 ± 0.36. WRGGKRHVAIFSISYSGTN gave an amyloid nucleation score of 0.9 ± 0.57. In turn, WRGLPSNG came in with an amyloid nucleation score of 0.024 ± 0.36. Substance WRILYRC showed an amyloid nucleation score of 0.41 ± 0.34. With WRLRCLRELV, the amyloid nucleation score is -0.542 ± 0.65. With WRQWKTLTARLTAMKA the figure was -0.178 ± 0.33.

Substance WRSSHINLGGIFRLSHTIYC came in with an amyloid nucleation score of -0.16 ± 0.38. With WRSSHNDKMSY the figure was -0.889 ± 0.46; with WRSVPRASFRNWSLWDPLYT, 0.453 ± 0.29; with WRVHSNKRKLGSCLLTGTIF, 0.656 ± 0.5.

WSCLSSLRDLGNGGYMM had an amyloid nucleation score of 0.05 ± 0.62. The substance WSKTSDDSVWWTWTDGIMFV had an amyloid nucleation score of 1.92 ± 0.46. The substance WSLNERQNMLHLHRLTASLG yielded an amyloid nucleation score of -0.088 ± 0.88. With WSNTCRASYFRPCGCG, the amyloid nucleation score amounted to 0.391 ± 0.39. Then WSPEMNVVKFTLFYNRSSRF, with 7.13 ± 0.078; and WSRTNMIYNPSVGAIYRV, with -0.021 ± 0.41. In the case of WSTFYLFLSLDWKNYT, the amyloid nucleation score entry is “inactive”. With WSVLCSFRSSSNQAFVFRVQ the figure was -0.827 ± 0.77; with WTFGLGSGVSGVSLERGPLG, -0.622 ± 1.7. In turn, WTIWVKDSLVPVCTSF registered an amyloid nucleation score of -1.03 ± 1.2. Substance WTMNLLA registered an amyloid nucleation score of -0.048 ± 0.16. For WTQAPDSAVGDGWGSNGSEA, the amyloid nucleation score turned out to be 0.013 ± 0.47. With WTSMGTHTFSVRNRSGPHNG, the amyloid nucleation score amounted to 1.22 ± 0.62. Substance WTSSVFSIAHPVRYVRFYAV yielded an amyloid nucleation score of 0.307 ± 0.54. Turning to WTVMVNICLGHCRVLSQLVP, the amyloid nucleation score came to 1.79 ± 0.24. For the substance WVAVRDMKGYRSRKKGQSWH, the amyloid nucleation score was determined as 0.199 ± 0.5.

Take WVHVCGGHCNWLICSMASNG: the amyloid nucleation score was determined as 7.889 ± 0.061. Consider WVTVPNTKKTNVLFGQWTIV, for which the amyloid nucleation score is -0.379 ± 0.39. Then WVVIR, with -0.369 ± 1.5; and WVYMANRVEYRRASRNMS, with “inactive”.

In turn, WWNIEEM returned an amyloid nucleation score of -0.271 ± 0.24. On to WWSYRKCRALNRRFQFFSYR, for which the amyloid nucleation score result was “inactive”.

For the substance WYEWSPFSSTWRSSIVLFNL, the amyloid nucleation score turned out to be 0.417 ± 0.56. YACESGMEIMHYRHMSGGVV registered an amyloid nucleation score of 0.732 ± 1. With YAEVGGLYSTSGVRRKNGGR, the amyloid nucleation score was 0.346 ± 0.32. In turn, YAFIG showed an amyloid nucleation score of -1.07 ± 1.5. In the case of YAFWFLCGYALP, the amyloid nucleation score was 2.92 ± 0.12. Consider YAINMVYYV, for which the amyloid nucleation score was found to be 1.16 ± 0.29. As for YAITRSAVICSNLALNMEC, the amyloid nucleation score is 2.09 ± 0.23. In the case of YAKVLTK, the amyloid nucleation score was -0.104 ± 0.33. YALRFFDDYESAAGSVR: the amyloid nucleation score was -0.454 ± 0.66. As to YARGMCWVRVWLNVQVSAWS, the amyloid nucleation score worked out at 0.398 ± 0.53. With YARWVGVSKVRNTQICNSMR the figure was -0.543 ± 0.79; with YATDCLLVSFGTSGECIHRL, “inactive”. YAYYLSDRVCFD: the amyloid nucleation score stood at 0.303 ± 0.4. YCDRDLKNKVLSNV: the amyloid nucleation score was -0.132 ± 0.42. Regarding YCIGYGKICSYMRIVSSGLQ, the amyloid nucleation score stood at 0.901 ± 0.24. The substance YCIPTVRVFL showed an amyloid nucleation score of 0.575 ± 0.66. In the case of YCLQRQRRKGRSRSSMPEDE, the amyloid nucleation score is 1.52 ± 0.52. With YCNGSLLRLAYMFGSGVSPR, the amyloid nucleation score was found to be 0.935 ± 0.46. For YCTLRESKPPMDGSM, the amyloid nucleation score was -0.898 ± 1.7.

YCTTAIGSKSLVDIWHAGCS: the amyloid nucleation score is -0.412 ± 1.2. The substance YCYEQVDSV gave an amyloid nucleation score of 0.154 ± 0.42.

As to YDFTDFPSPTFRYFVLIGNA, the amyloid nucleation score came out at 0.333 ± 0.54.

YDHGRWDSTVSGLRDVMLDV: the amyloid nucleation score result was “inactive”. YDLTSFGFSVIVCSDDTRSG returned an amyloid nucleation score of -0.043 ± 0.75. As to YDRAWMLRPTLLWLTQTVVR, the amyloid nucleation score worked out at 2.21 ± 0.13.

Take YDVLEDSHELMMCFCVRGHW: the amyloid nucleation score was -0.155 ± 1. As for YENHGISDLSCIFTPYKV, the amyloid nucleation score result was “inactive”. Then YFAVDDNYLHIQTSVRSRCS, with 0.036 ± 0.41; and YFAVWSSRDTFRFYLILINP, with -0.427 ± 0.33. As for YFEFSIHSQRYIQWSHYLVL, the amyloid nucleation score is -1.05 ± 1.7. YFGLRSVKRWQT: the amyloid nucleation score is -0.106 ± 0.52.

Take YFGSLYERGRIIGRRVMR: the amyloid nucleation score worked out at 0.267 ± 0.32.

As for YFIARREQFWIMLPGELALE, the amyloid nucleation score is -0.756 ± 1.7. Substance YFIFFLSNVFASSVIILMYM showed an amyloid nucleation score of -0.071 ± 0.36. Then YFISVVFASGKGW, with -0.387 ± 0.8; and YFLLPYADRIHHLSVNCFWM, with -0.008 ± 0.93. With YFMFSLCSYSNYWLRWGFV the figure was 0.121 ± 0.22; with YFPGVSRGQVDEPVYLCCQR, 0.068 ± 0.57. With YFRSSGGAFFGNLDVCGNYV the figure was 0.124 ± 0.48. Regarding YFSFIWMYKMDIMTI, the amyloid nucleation score was -0.117 ± 0.35.

Regarding YFSSYFV, the amyloid nucleation score amounted to 0.118 ± 0.41. With YFSVGSCNRYLHWTVQ, the amyloid nucleation score stood at 5.06 ± 0.075. With YFSWLFPFIDLSRVSASMPT the figure was 2.69 ± 0.2; with YFTLFDSRKTVLRSENNTRW, 0.578 ± 0.32.

As to YFVHQNKHRTKIIILGLGLI, the amyloid nucleation score stood at 1.35 ± 0.5.

For YFVLALWFIGCYECLYLWLC, the amyloid nucleation score is 1.21 ± 0.59. Regarding YFVMGLIFGLKRLLVLAIRR, the amyloid nucleation score is -0.53 ± 0.3. With YFWMIPMTGEVHNCPDLAPK the figure was 0.386 ± 0.33; with YGASI, 0.136 ± 0.47. In the case of YGDDRWYIRSIIEDCQLGGF, the amyloid nucleation score was -0.716 ± 0.5.

With YGFLNPTSSR, the amyloid nucleation score is 0.632 ± 0.5. With YGLIGM the figure was 0.24 ± 0.37; with YGNKTYFAPR, 0.557 ± 0.51; with YGSGPNDWLYVWGNSLWQKV, -0.106 ± 0.66.

As to YGVCT, the amyloid nucleation score was determined as 0.49 ± 0.22. Consider YGVVYNIWHFIEMKGDYTHA, for which the amyloid nucleation score was determined as 6.869 ± 0.055. YHDVRLMVRVHVFWLF gave an amyloid nucleation score of 1.03 ± 0.37. Substance YHIRVAWQFVGADI registered an amyloid nucleation score of -0.535 ± 1. For YHPRTSYFCDVVFRGPERGN, the amyloid nucleation score turned out to be 1.87 ± 0.69.

YHSKLFVGGYWLYREDGREY displayed an amyloid nucleation score of 0.812 ± 0.24.

YHVDC: the amyloid nucleation score is -0.13 ± 0.34. YHVSLLSI: the amyloid nucleation score came to 0.169 ± 0.65. YIDKG showed an amyloid nucleation score of -0.893 ± 1.9.

Substance YIDSLISLITDSCMNHRDGR registered an amyloid nucleation score of -0.29 ± 1.1. Consider YILGVRSSYSMFMESQCL, for which the amyloid nucleation score was 0.543 ± 0.23.

Take YILNGVPVKAFFLGYGADYS: the amyloid nucleation score was -0.979 ± 1.3. Then YIMILSYAVNKSYFTRLSCN, with -0.459 ± 0.67; and YINTGVLYFGFCGL, with 7.117 ± 0.06; and YITAWEWVQRRVV, with 2.46 ± 0.18.
